# Laboratory results as given in the nanobody polyreactivity screen of Harvey et al. (2022).
# Assay: yeast display, Sf9 membrane polyspecificity reagent, FACS + sequencing; frameworks hold sequencing errors
# How it was run: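 Nanobodies from a synthetic yeast display library (Saccharomyces cerevisiae BJ5465), induced 36–48 hours with galactose, were stained 1 hour at 4 °C with 10% biotinylated, detergent-solubilized Sf9 membrane reagent, enriched on streptavidin microbeads, then FACS-sorted. Anti-HA (expression) and streptavidin (reagent binding) fluorescence set low and high (top ~1%) gates. Polyreactivity labels come from the gate of origin. Genes were colony-PCR amplified, MiSeq 2 × 250 sequenced and filtered by CDR length.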
row,Sequence,polyreactivity (PSR sort gate)
1,QVQLVESGGGLVQAGGSLRLSCAASGSTFQNNAMGWYRQAPGKERELVATISRRGGSTYYADSVKGRFTISRDIAKNTVYLQMNSLKPEDTAVYYCTGRDYWGQGTQVTVSS,high polyreactivity
2,QVQLVESGGGLVQAGGSLRLSCAASGRTFRFYAMGWYRQAPGKERELVAAITYRGGTYYADSVKGRFTISRDNAKNTVYLQMNSLKPEDTAVYYCAVKPSGWSGMDYWGQGTQVTVSS,high polyreactivity
3,QVQLVESGGGLVQAGGSLRLSCAASGRTFSRYTMGWYRQAPGKEREFVAAIDRGGGTTYYADSVKGRFTISRDNAKNTVYLQMNSLKPEDTAVYYCAAERNYWSTQYYYWGQGTQVTVSS,high polyreactivity
4,QVQLVESGGGLVQAGGSLRLSCAASGSIFYLYTMGWYRQATRKERELVAGISNGDRTYYADSVKGRFTISRDNAKNTVYFQMNSLKPEDTAVYYCAKGWYRIKRNDYWGQGTQVTVAS,low polyreactivity
5,QVQLVESGGGLVQAGGSLRLSCAASGRTFPRNGMGWYRQAPGKERELVAAIRYSGGSTYYADSVKGRFTISRDNAKNTVYLQMNSLKPEDTAVYYWAAGRNRAGGFGSWGQGTQVTVSS,high polyreactivity
6,QVQLVESGGGLVQAGGSLRLSCAASGSIFSPYAMGWYRQAPGKERELVAAISFRASTTYYADSVKGRFTISRDNAKNTVYLQMNSLKPEDTAVYYCSASALYSWFWGLYDYWGQGTQVTVSS,low polyreactivity
7,QVQLVESGGGLVQAGGSLRLSCAASGSTFITNTMGWYRQAPGKERELVAAISKSGGSTYYADSVKGRFTISRDNAKNTVYLKMNSLKAEDTAVYYCAADIYVRDRGVKYDYWRQGTQVTVSS,low polyreactivity
8,QVQLVESGGGLVQAGGSLRLSCAASGLTFGPYAMGWYRQAPGKERELVAAITSGGNTNYADSVKGRFTISRDNAKNTVYLQMNSLKPEDTAVYYCATSYYLAYRSITPYDYWGQGTQVTVSS,low polyreactivity
9,QVQLVESGGGLVQAGGSLRLSCAASGHSFFYYTMGWYRQAPGKERELVAGITIGGSTNYADSVKGRFTISRDNAKNTVYLQMNSLKPEETAVYYCKKRYVVSRKYDYWGQGTQVTVSS,low polyreactivity
10,QVQLVESVGGLVQAGGSLRLSCAASGFIFRKYVMGLYIQAPGKERELVAAITRSCTSTYYADSVKGRFTISRDNAKNTVYLQMNSLKPEDTAVYYCNVGSDGWYYWGQGTQVTVSS,low polyreactivity
11,QVQLVESGGGLVQAGGSLRLSCAASGSTFLVYALGWYRQAHGKEREFVAAISWSGGSTFYADSVKGRFTISRDNAKNTVYLQMNSLKPEDTAVYYCAARQAGYSGRKLYYWGQGTQVTVSS,low polyreactivity
12,QVHLVESGGGLVQAGGILRLSCPASGQTFWAYAMGWYRQAPGKERELVAAISWRGGSTYYADSVKGRFTISRDNAKNTVYLQMNSLKPEDTAVYYCAAQYLYYGGRRYDFWGQGTQVTVSS,high polyreactivity
13,QVQLVESGGGLVQAGGSLRLSCAASGNIFGKNVMGWYRQAPGKEREFVAAITSRGGRTNYADSVKGRFTISRDNAKNTVYLQMNSLKPEDTAVYYCATRYKSPSFDYWGQGTQVTVSS,high polyreactivity
14,QVQLVESGGGLVQAGGSLRLSCAASGFIIYGYVMGWYRQAPGKERELVAAINSSSGRTYYADSVKGRFTISRDNAKNTVYLQMNSLKPEDTAVYYCAAYYYGSYDGTPYDYRGQGTQVTVSS,low polyreactivity
15,QVQLVESGGGLVQAGGSLRLSCAASGGTFGRYAMGWYRQAPGKERELVASITTGGRTNYADSVKGRFTISRDNAKNTVYLQMNSLKPEDTAVYYCAKKRYGYPLPFYYWGQGTQVTVSS,high polyreactivity
16,QVQLVESGGGLVQAGGSLRLSCAASGFTFKSNAMGWYRQAPGKERELVAAISGSGGRTYYADSVKGRYTISRDTAKYTVYLQMNSLKPEDTAVYYCAADYPVRSYDYWGQGTQVTVSS,low polyreactivity
17,QVQLVESGGGLVQAGGSLRLSCAASGRTFGRYAMGWYRQAPGKERELVAAINSGSASTYYADSVKGRFTISRDNAKNTVYLQMNSLKPEDTAVYYCAVYGYWSKSDYWGQGTQVTVSS,high polyreactivity
